Experimental findings from PMC8477557 are described below.

The target of the assay is CD123 extracellular domain (human (cDNA of L-428 cells)) (UniProt P26951). Kind of assay: SPR. The conditions noted are these: bispecific antibody.
Sequence of CD123 extracellular domain (human (cDNA of L-428 cells)) (P26951 19-305): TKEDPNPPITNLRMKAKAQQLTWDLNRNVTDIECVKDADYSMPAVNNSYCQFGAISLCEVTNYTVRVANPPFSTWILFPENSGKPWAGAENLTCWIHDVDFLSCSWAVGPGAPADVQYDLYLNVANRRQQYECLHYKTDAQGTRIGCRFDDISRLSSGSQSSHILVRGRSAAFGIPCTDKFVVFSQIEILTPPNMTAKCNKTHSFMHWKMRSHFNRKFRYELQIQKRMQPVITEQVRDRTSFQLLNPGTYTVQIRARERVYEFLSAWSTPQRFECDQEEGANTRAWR

With “1 × SIRPα-αCD123 fusion antibody (from UniProt P78324 31-149)”, the dissociation constant Kd was 2.74 nM. For the substance “2 × SIRPα-αCD123 fusion antibody (from UniProt P78324 31-149; P78324 31-149)”, the Kd was found to be 2.34 nM.
